Test results reported in publication doi:10.1101/2022.12.23.521429v4.

Test system: Nc1ncnc2c1ncn2[C@@H]1O[C@H](COP(=O)(O)OP(=O)(O)OP(=O)(O)O)[C@@H](O)[C@H]1O
Experiment: kinase activity assay
Type: biochemical, Homo sapiens
Settings: co-substrate and buffer of the KM determination not told

With “DYRK1B kinase domain (78-442) (Homo sapiens)” the Km was 105 µM.
